Test system: E. necator
Experiment: Leaf disc assay, dry inoculum (settling tower), decrease in disease severity / hyphal growth (Example 2)
Conditions: decrease in disease severity (hyphal growth) relative to untreated control, value ± SE; for % decrease =/− SE TP1: time point 1 (untreated control hyphal growth ≥50%); for % decrease =/− SE TP2: time point 2

B1: GS3477 (nucleic acid)
sense: CCUCUCGCCAUUAAAUACUCAUAAAAUAUCCGCACGUACAGUUCUCUUCACUUCGGUACCUGCUAAAUACAGAGAUGAAUCUAAAUUACGUCAGAUAUUUGGCUCAUGCGUGAAAAAGGUUUGGAUAACAAAAGACAGUUCAGAGGUUGACGACCUUGUAUCUGAGCGCGACGAUCUCCUACUAAGAUUAGAAUCAUCUGAAGUUAAGCUUAUUAAAAUUGCAAAUACAGAGAGACUCAAGAUUAACAAGAAAAAAGCUGGAGAUAAUAACUCAUCAUCUGAAGUCGCAGCUCCUGUCCCAGCAUCUCUAGUUGACUACUGGGUUCCAGAAAAUAAGCGUCCGACUCAUAAGCUUGGCUUAUUUGGGCUAGUUGGACAGAAAGUUGAUACGAUUAAAU
antisense: AUUUAAUCGUAUCAACUUUCUGUCCAACUAGCCCAAAUAAGCCAAGCUUAUGAGUCGGACGCUUAUUUUCUGGAACCCAGUAGUCAACUAGAGAUGCUGGGACAGGAGCUGCGACUUCAGAUGAUGAGUUAUUAUCUCCAGCUUUUUUCUUGUUAAUCUUGAGUCUCUCUGUAUUUGCAAUUUUAAUAAGCUUAACUUCAGAUGAUUCUAAUCUUAGUAGGAGAUCGUCGCGCUCAGAUACAAGGUCGUCAACCUCUGAACUGUCUUUUGUUAUCCAAACCUUUUUCACGCAUGAGCCAAAUAUCUGACGUAAUUUAGAUUCAUCUCUGUAUUUAGCAGGUACCGAAGUGAAGAGAACUGUACGUGCGGAUAUUUUAUGAGUAUUUAAUGGCGAGAGG
- % decrease =/− SE TP1: 28 ± 4%
- % decrease =/− SE TP2: 7 ± 8%

B2: GS3523 (nucleic acid)
sense: UAACGAGAGAGAAUACACGGUAAAGACAGUAGUAUGGCAUAUGAUGCAAAAUGUAGAAAAGAUUGUAAUUGAGUUGGCAGUAAGUUCAUUCACGAAAAAUGAAUUAUUUUCCACACCAUAUCCGGGCUGAGGAAGGAAGACAUUUGUUUUCAAGUCAAGUUAAUGAAAAAACCAAAAAUAAAACUCAAACACACAGUGAGUAAUUUUUAUUAAGGUGGUCCAAUAAUAAUUUUUUCUGACAUGUACUCCUUGUAGUUUUGAGAUGAAAAUAGAGAUAAUAUUGAGUCUGUCGUUAUCCGAAACAGUUUAUGUUAGAGGUUGAUAAAUGACGAUACAAAAUGUAUAUAUUAGGAAAUCAAUUUACCGUGACCAAUGAGAAAAGAGGAGGUCUAAUU
antisense: AAUUAGACCUCCUCUUUUCUCAUUGGUCACGGUAAAUUGAUUUCCUAAUAUAUACAUUUUGUAUCGUCAUUUAUCAACCUCUAACAUAAACUGUUUCGGAUAACGACAGACUCAAUAUUAUCUCUAUUUUCAUCUCAAAACUACAAGGAGUACAUGUCAGAAAAAAUUAUUAUUGGACCACCUUAAUAAAAAUUACUCACUGUGUGUUUGAGUUUUAUUUUUGGUUUUUUCAUUAACUUGACUUGAAAACAAAUGUCUUCCUUCCUCAGCCCGGAUAUGGUGUGGAAAAUAAUUCAUUUUUCGUGAAUGAACUUACUGCCAACUCAAUUACAAUCUUUUCUACAUUUUGCAUCAUAUGCCAUACUACUGUCUUUACCGUGUAUUCUCUCUCGUUA
- % decrease =/− SE TP1: 8 ± 11%
- % decrease =/− SE TP2: 12 ± 10%

B3: GS3524 (nucleic acid)
sense: UCAAGUCCACUUCGAUUUGUAAAGCAAGAAGUUAUGAGACCUUGAGAAUGACUGAGGUAGGCCGAAUAAGAUUUUCAGAUUCUAAAAUACUGGAUUUUGGUACCAAUUCAUGAUCCUUUCUGGCCCCCUUACAUUGGCGACAAGGCAGAUAGUCAUCGAGUUGGUCUUUUCCAGUCAAAGAAUGAUAAUCUCCAACGUCUUUCCGGGAAACAGAAGUUGUAUUGACAUUAAUUACAGCUGUGGAUGAGGAUGAACGAUAAUAUUGGCGUUGAGCUACAGGGAAGGGAUUCAACAGAUGCCAUUGCCAUUCAUAAUUUCCAUGAAGCCAAGUCGUUGAAGCCAGAGAUGCAAGUGUAUGGAAGAAUCCCAAGAGCCAAUUGAUUGAAGACAGAAUUACU
antisense: AGUAAUUCUGUCUUCAAUCAAUUGGCUCUUGGGAUUCUUCCAUACACUUGCAUCUCUGGCUUCAACGACUUGGCUUCAUGGAAAUUAUGAAUGGCAAUGGCAUCUGUUGAAUCCCUUCCCUGUAGCUCAACGCCAAUAUUAUCGUUCAUCCUCAUCCACAGCUGUAAUUAAUGUCAAUACAACUUCUGUUUCCCGGAAAGACGUUGGAGAUUAUCAUUCUUUGACUGGAAAAGACCAACUCGAUGACUAUCUGCCUUGUCGCCAAUGUAAGGGGGCCAGAAAGGAUCAUGAAUUGGUACCAAAAUCCAGUAUUUUAGAAUCUGAAAAUCUUAUUCGGCCUACCUCAGUCAUUCUCAAGGUCUCAUAACUUCUUGCUUUACAAAUCGAAGUGGACUUGA
- % decrease =/− SE TP1: 3 ± 11%
- % decrease =/− SE TP2: 22 ± 12%

B4: GS3526 (nucleic acid)
sense: UAUCCCUGAUUUCUAUAGUCUGAUGAAGAAUGAUUUUUGUAGGCAAUAGACUUUCUUCUCUUCCCAGAACAGCAGCUUCUACAGCAUCCACAACAGCUUAGGAAAGAGAAGCAAGAACAACAAAAUGAGUAUCCAAAGCACAAGCAGCGUGUCAUACAAAUGAUAAUUGAGAGGACUAUUAAGCCACCGAUAACAAGUCCGAUUAUUGCUGGCCAUUUGCAAUAAAUUUGUAUCAUGCAUUUAUCCCAGUUGGUGAAUGAAGAAGUAACGUUUGAUACUUGAUUAGUUAAUUGAUCACUCAACUGAUCACUUACAAGCCUUGGCCUAAGCAAACUAAUCUCCAAAAAAUUCAUGUUUCCAAUAUUAACACCUCCGUGAUCUUCAUUAAAUAAGUAA
antisense: UUACUUAUUUAAUGAAGAUCACGGAGGUGUUAAUAUUGGAAACAUGAAUUUUUUGGAGAUUAGUUUGCUUAGGCCAAGGCUUGUAAGUGAUCAGUUGAGUGAUCAAUUAACUAAUCAAGUAUCAAACGUUACUUCUUCAUUCACCAACUGGGAUAAAUGCAUGAUACAAAUUUAUUGCAAAUGGCCAGCAAUAAUCGGACUUGUUAUCGGUGGCUUAAUAGUCCUCUCAAUUAUCAUUUGUAUGACACGCUGCUUGUGCUUUGGAUACUCAUUUUGUUGUUCUUGCUUCUCUUUCCUAAGCUGUUGUGGAUGCUGUAGAAGCUGCUGUUCUGGGAAGAGAAGAAAGUCUAUUGCCUACAAAAAUCAUUCUUCAUCAGACUAUAGAAAUCAGGGAUA
- % decrease =/− SE TP1: 22 ± 10%
- % decrease =/− SE TP2: 11 ± 10%

B5: GS3601 (nucleic acid)
sense: CAAUUGCUGCAGCAUGACCUUCUCUUGGAACCGGUAUAUAUCCUAUGCAGUCCAAAAGAGUCCAGGAGUUCGGUAUCGGAUCAUAACACCAAACAUCGUUAUACCAUUGAAGACCAUUUGUUCCGCCAAACAAGUAAAGCUUUUCAUUAUAUGUCACAACUGAGUGAUUUGUUCUAGCUGAUGGUAUUUGUCCUACUGGGGGUCCACCAUCCUCACUAUUUUUAAUGAGAAUUUCCCACCUGUUCGUAGGGACUUGCAAAAGAUUCAAAUCAAAAGCCACAAGGUCAUUCAUAAAAUAACCCUCUACUUGCCCCCCGAAUACGUAGAUUUUAGACCCUAGUAUAUUGAGAGAAUGACCAUAACGCCCCGCGGGCCGUGGCCCGGCAGGUAUAGCUCUGGA
antisense: UCCAGAGCUAUACCUGCCGGGCCACGGCCCGCGGGGCGUUAUGGUCAUUCUCUCAAUAUACUAGGGUCUAAAAUCUACGUAUUCGGGGGGCAAGUAGAGGGUUAUUUUAUGAAUGACCUUGUGGCUUUUGAUUUGAAUCUUUUGCAAGUCCCUACGAACAGGUGGGAAAUUCUCAUUAAAAAUAGUGAGGAUGGUGGACCCCCAGUAGGACAAAUACCAUCAGCUAGAACAAAUCACUCAGUUGUGACAUAUAAUGAAAAGCUUUACUUGUUUGGCGGAACAAAUGGUCUUCAAUGGUAUAACGAUGUUUGGUGUUAUGAUCCGAUACCGAACUCCUGGACUCUUUUGGACUGCAUAGGAUAUAUACCGGUUCCAAGAGAAGGUCAUGCUGCAGCAAUUG
- % decrease =/− SE TP2: 2 ± 3%

B6: GS3525 (nucleic acid)
sense: CUGGAAUUGUUGCACUGGCCAUGUAAAGCAGUUUAUGACUCGUCUAAAUAUUUAAUUACGGCUAUGCACGGAGAGCUUGGGGUUACUGUUUUUUUUUCUCAAAAAUAUGCCGGUGGGAUUCGAAUUGGUCCGGAUAUUUUUUCUGUAAAUAAUUGAGUGACGGCUUUGUACUCGUGAUAAUUACAGACAAAUCUAAUAUAAUGUGCUUAUCCUUCUAACGAACUUCGGAGAAUGAUUUGUUUUAUUGAGUGAUUAGUUGACUUGUUUUAUUAGUUAUGGUUAUCAAACGAUCACAUAAAAAAACGCAUACUUUUUACAAUGAAGUGAUUGUAUACCAAUGUUUCCCUUGGUGGCCCUCAAAAAACUAAGUUAGAUAGAU
antisense: AUCUAUCUAACUUAGUUUUUUGAGGGCCACCAAGGGAAACAUUGGUAUACAAUCACUUCAUUGUAAAAAGUAUGCGUUUUUUUAUGUGAUCGUUUGAUAACCAUAACUAAUAAAACAAGUCAACUAAUCACUCAAUAAAACAAAUCAUUCUCCGAAGUUCGUUAGAAGGAUAAGCACAUUAUAUUAGAUUUGUCUGUAAUUAUCACGAGUACAAAGCCGUCACUCAAUUAUUUACAGAAAAAAUAUCCGGACCAAUUCGAAUCCCACCGGCAUAUUUUUGAGAAAAAAAAACAGUAACCCCAAGCUCUCCGUGCAUAGCCGUAAUUAAAUAUUUAGACGAGUCAUAAACUGCUUUACAUGGCCAGUGCAACAAUUCCAG
- % decrease =/− SE TP1: 17 ± 9%
- % decrease =/− SE TP2: 34 ± 8%

B7: GS3478 (nucleic acid)
sense: ACCGUCCUGAAAGUAAAGGUGAAAAGAAAGAGCGUCUUCUCAAGGAAGCUACAGCUAUUAAAAAUGGCAACAAGGAGGAUGUCAGUAAGAAGCCAUACACAGUAAAGUAUGGACUCAAUCAUGUCGUUGGUUUGGUUGAGAAUAAGAAAGCUUCUCUAGUCUUAAUACCCAAUGAUGUCGAUCCUAUAGAGUUGGUUAUAUUUCUUCCAGCUCUUUGUCGAAAGAUGGGAGUUCCUUAUGCUAUCAUUAAAGGAAAAGCUAGACUUGGUACUGUUGUACACAAGAAAACUGCUGCUGUAUUGGCAAUAACUGAAGUUCGAUCCGAAGAUAAAUCAGAGCUAUCAAAAUUAAUCCAAGCUAUUAAAGAAGGCUACUCUGAGAAAUAUGAAGAAGCUAAG
antisense: CUUAGCUUCUUCAUAUUUCUCAGAGUAGCCUUCUUUAAUAGCUUGGAUUAAUUUUGAUAGCUCUGAUUUAUCUUCGGAUCGAACUUCAGUUAUUGCCAAUACAGCAGCAGUUUUCUUGUGUACAACAGUACCAAGUCUAGCUUUUCCUUUAAUGAUAGCAUAAGGAACUCCCAUCUUUCGACAAAGAGCUGGAAGAAAUAUAACCAACUCUAUAGGAUCGACAUCAUUGGGUAUUAAGACUAGAGAAGCUUUCUUAUUCUCAACCAAACCAACGACAUGAUUGAGUCCAUACUUUACUGUGUAUGGCUUCUUACUGACAUCCUCCUUGUUGCCAUUUUUAAUAGCUGUAGCUUCCUUGAGAAGACGCUCUUUCUUUUCACCUUUACUUUCAGGACGGU
- % decrease =/− SE TP1: 29 ± 4%
- % decrease =/− SE TP2: 13 ± 9%
